Fold reduction of co-precipitated Envelope against wild-type NS1^HA data for one substance are collected here from paper PMC4643051.

Test [1] addresses NS1^HA mutant W115A (Dengue virus type 2 (DENV-2), strain 16681). Briefly: co-IP.
For test [2], the target named is NS1^HA mutant S114A (Dengue virus type 2 (DENV-2), strain 16681). Briefly: co-IP.

Take “Envelope protein (E) of Dengue virus (from UniProt P29990) (natural protein)”: the fold reduction of co-precipitated Envelope against wild-type NS1^HA in test [1] was 3.8 fold; in test [2] it was 7.5 fold.
